Test results from the DeepSol protein solubility set.

Experiment: soluble on expression in E. coli; label from the status in PepcDB or PDB records

Sequence	soluble on expression in E. coli
MSLDNAMRNIFNGMMTTTSPASFETATRTGVVGGSFSYRTTNVNTNLVSMSFPKASVGCNGIDVFLGSFSMINGDQLVQVARGIAQGAAIYAFNVAVSAICADCAATINDIQNKLQALNKFAKDSCNATYSFLTENVGPPSQFANAVSSGPASMLGTLNGLLPDFGSSMTKSPETVTSQVKAKDPEEFAEKFSGNLFYMSFMDIDKGSMNIGGVTELSGYRLAEQLMSLVGTVIINWDAKGEKAGMEVRPSTMTVSDFIMGPPAGGSIKMLKCSPAPDPASARKSQCLVMSEVTDGGFKGLKDTISDLLIQVQTKAISDVRISDDELRIISYIGIPTILDSLQTFDVPEGYAYIQDISAIAATSLVINMLRQVEAKISAMNIPSESLSGRRQDLTRLSENLTNQVKAAYELTRSQVGNSSDVISAWDDRRLKRKAFMESLRGTGNEGHHHHHH	not soluble
MFNKVSVIGLGYIGLPTAAVLASRGLDVVGVDVNAHAVDTINKGEIHIVEPDLDIVVRSAVMTGKLKATLTAEPADAFLVAVPTPFKGDNHEPDLSYIEAAAKTIAPVLAKGNLVVLESTSPVGTTEKLAQWLAEARPDLTFPQQKGIAADVKIAYCPERVLPGYVLQELVSNDRVIGGVSKACSEKAVALYKTFVKGECIVTNARTAEMAKLTENSFRDVNIAFANELSLVCNKLKINVWELIRLANRHPRVSILNPGPGVGGHCIAVDPWFIVNSCPDEAQLIRTAREVNDGKPHWVVDQVKQAADQFKKPIIACLGLAFKADIDDLRESPALDITKHLAESKVGQLLAVEPNITELPSKLAKQGIELVSLERALELANIVVVLVDHKEFKAADKTEFAKKVVIDTRGVVA	not soluble
LVGDFERELGRLLSPFELEDLQKTLQEDQTDPDIVRAALREAVFNGKTSWNYINAILRNWRREGLTTLRQIEERKQAREDNQMKDLAISDDFKNAMNLWE	not soluble
MEYKLHNGSGGLCCKGCSRQDKKLNTYDWLADIPGNAEECDMVEVQFKNTRKGYYRNSNKIKLEKGDIVAVEAAPGHDIGVVTLTGRLVPLQMKKANFKTDVEIKRIYRKAKPVDMEKFNEAKAKEHATMIRARQIALNLNLDMKIGDVEYQGDGNKAIFYYIADERVDFRQLIKVLAEAFRVRIEMKQIGARQEAGRIGGIGPCGRELCCATWMTSFVSVSTSAARFQDISLNPQKLAGQCAKLKCCLNYEVDCYVEAQKRLPSKEIELETKDGTFYFFKADILSNHVSYSTDKNFPANLVTISGKRAFEVIAMNKKGMKPDSLLEAEVKQESKKPIDLLEQESLTRFDRNRNNKDGNNGNRNKKKRKGNNDNRPQAQAESGNRPQQPQRGENENRPQPSENGNRGERGDRENRPRNNNNNNRNRGQNQGRNNENRRPERGQNQERPQNPNRPQNQERSQNQERPVNQERNQERNQERPQNRERQPKQERPQNQERPQEQGRQPNQERIPRPERNSNQEKPQNNEKPAQE	not soluble
MRFKVGIEFDESLELPFNYNKILQGFIYRNIMDKDLARFIHDRGFSYEKRKYKMFTFSRLQGKFSIDSKKKKIIYQSPVELVVSSCYEDFFIDLSLSLLRRDVEIAGHKAYVSKMDIIMEEPKSIQKIRMLSPVTAYSTLDDKRTVYFSPYNHDFKRIIKENLIKKYKAFYKDDSKDNVDFDIELVSDKYAKVISSYDGFIIEGWMGDFVLKGDQEVIKLAYDAGIGGKNSQGFGCFKLI	soluble
MNRRDFIKAASGGALLLGAAPSVSHAAAENRPPIPGSLGMLYDSTLCVGCQACVTKCQDINFPARNPEGEQTWSNNDKLSPYTNNIIQVWRSGTGVNKDQEENGYAYIKKQCMHCVDPNCVSVCPVSALKKDPKTGIVHYDKDVCTGCRYCMVACPYNVPKYDYNNPFGALHKCELCNQKGVERLDKGGLPGCVEVCPAGAVIFGTREELMAEAKKRLALKPGSEYHYPRQTLKTDDTYLHTVPKYYPHLYGEKEGGGTQVLVLTGVPYEDLDLPKLDDLSTGARSEHVQHTLYKGMILPLAALAGLTVLVRRNSKNDHHDGGDDHES	not soluble
MMEKNNEVIQTHPLVGWDISTVDSYDALMLRLHYQTPNKSEQEGTEVGQTLWLTTDVARQFISILEAGIAKIESGDFPVNEYRRH	not soluble
LISPDVDIEEITTRILEEAMGLTGSEQGFVATIDPLSRTLVIHTFSSMMDCLWQGGEEGRRILFPPGQDGSYPTLWGHSLNTKCPFYTNDPAGHPSAVGVPHGHIPLRHFLSVPVMLGDEVVAQISLANPGRDYTERDLEAIGRVAKFFALAIQRMRAEESIR	not soluble
